{
  "source": "patent US7312058B2",
  "about": "“Mutant serine acetyltransferase” (priority 2003, dated 2007)",
  "key": {"[1]": {"tested_on": "E. coli strain MG1655", "experiment": "L-cysteine production by test-tube fermentation of strains carrying a mutant cysE plasmid", "assay_type": "cell-based", "text": "The E. coli strain MG1655 (ATCC47076, ATCC700926) was used as a parental strain for evaluation of effect of enhanced expression of mutant cysE gene on L-cysteine production.\nPlasmids pMW-PompC-cysEX (containing mutant cysEX gene encoding a mutant SAT in which Thr167 is replaced with Ala, which is described in the U.S. Pat. No. 6,218,168) and pMW-PompC-cysE5 were introduced into the E. coli strain MG1655. The resulting strains MG1655/pMW-PompC-cysEX and MG1655/pMW-PompC-cysE5 were cultivated overnight with shaking at 34° C. in 2 ml of nutrient broth supplemented with 100 mg/l of ampicillin. 0.2 ml of the obtained cultures were inoculated into 2 ml of a fermentation medium containing ampicillin (100 mg/l) in 20×200 mm test tubes, and cultivated at 34° C. for 42 hours with a rotary shaker at 250 rpm. The composition of the fermentation medium was the following: 15.0 g/l of (NH4)2SO4, 1.5 g/l of KH2PO4, 1.0 g/l of MgSO4, 20.0 g/l of CaCO3, 0.1 mg/l of thiamine, 1% of LB, 4% of glucose, 300 mg/l of L-methionine and 0.5 g/l of Na2S2O3.\nAfter cultivation, the amount of L-cysteine which had accumulated in the medium was determined by the method described by Gaitonde, M. K. (Biochem. J., 104:2, 627-33 (1967))."}, "[2]": {"tested_on": "serine acetyltransferase (SAT)", "procedure": "Acetyl coenzyme A and other chemicals used were from Sigma Chemical Co. (St. Louis, Mo., USA).\nThe cells were sonicated and the pellet was separated by centrifugation at 13000 rpm. The SAT-containing protein fractions in the resulting supernatant were precipitated by 5 volumes of saturated (NH4)2SO4 and pellets were dissolved in 2 ml of buffer (pH 7.5, 50 mM potassium phosphate and 100 mM KCl). The obtained solution was added to 0.1 ml of reaction mixture (500 mM Tris-HCl (pH 8.5), 5 mM L-serine, 0.1 mM acetyl coenzyme A) and incubated at 37° C. for 10 min. The reaction was stopped by adding 0.3 ml of ethanol followed by centrifugation at 13000 rpm. 0.95 ml of 0.24 mM DTNB (5,5-dithio-bis-2-nitrobenzoate) solution was added to supernatant and mixture was incubated for 15 min. The SAT activity was assayed by measuring the absorbance at 412 nm."}},
  "data": [
    {"substance": "cysE5 (RTRDPARP; randomized region of SAT protein only)", "values": [
      {"measurement": "effect of overexpression on cysteine productivity", "setting": "[1]", "value": "improved cysteine productivity"},
      {"measurement": "Residual activity in presence 25 μM cysteine, %", "setting": "[2]; 25 μM cysteine", "value": 100, "unit": "%"},
      {"measurement": "Specific activity, relative units", "setting": "[2]; protein fraction from LE392 cysE::KmR carrying the plasmid, 5 mM L-serine, 0.1 mM acetyl coenzyme A, 37° C., 10 min", "value": 900, "unit": "relative units"},
      {"measurement": "sensitivity to feedback inhibition by L-cysteine", "setting": "[2]; statement from Table 2 and FIG. 5", "value": "no sensitivity to feedback inhibition by L-cysteine"}
    ]}
  ]
}
